Experimental data published in patent US20210347821A1 (published 2021).
Where no end group is shown, it is not given here. The star is where a group is joined. NPEG4 = 4-unit NPEG linker joining two HWLKV peptides through their N-termini, carries the CPP on its nitrogen; Biotin = O=C1N[C@H]2[C@H](CS[C@H]2CCCCC(=O)*)N1

How the values were obtained:
[1] = target: T1, GFP-PICK1 A87L (UniProt Q9EP80 1-416); assay: colocalization in heterologous cells
T1 construct: also called PDZ deficient mutant GFP-PICK1 A87L; not shown: GFP tag
T1 sequence (Q9EP80 whole entry A87L): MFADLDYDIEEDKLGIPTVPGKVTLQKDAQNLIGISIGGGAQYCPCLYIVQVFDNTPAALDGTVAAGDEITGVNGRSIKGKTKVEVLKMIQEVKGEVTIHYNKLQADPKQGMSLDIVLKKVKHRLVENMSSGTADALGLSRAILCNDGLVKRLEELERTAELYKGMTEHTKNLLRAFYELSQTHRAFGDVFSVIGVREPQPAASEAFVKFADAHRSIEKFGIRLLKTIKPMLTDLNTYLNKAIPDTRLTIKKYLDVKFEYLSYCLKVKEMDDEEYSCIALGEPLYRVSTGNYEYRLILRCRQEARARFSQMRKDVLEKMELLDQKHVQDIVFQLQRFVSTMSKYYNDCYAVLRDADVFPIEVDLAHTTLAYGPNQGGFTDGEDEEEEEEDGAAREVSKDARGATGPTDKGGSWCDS

[2] = target: T2, Protein Interacting with C Kinase-1 (PICK1), purified recombinant (UniProt Q9EP80 1-416); assay: fluorescence polarization competition, tracer 5-FAM-TAT-C5
T2 construct: also called purified PICK1
T2 sequence (Q9EP80 whole entry): as the sequence (Q9EP80 whole entry A87L) above, with L87A counted along it

[3] = target: T2, Protein Interacting with C Kinase-1 …; assay: fluorescence polarization competition, tracer 5FAM-TAT-(C5)
[4] = target: T1, GFP-PICK1 A87L; assay: pull-down from HEK293 cells
[5] = target: T3, PICK1 (endogenous, mouse spinal cord) (mouse, UniProt Q62083 1-416); assay: pull-down from mouse spinal cord after intrathecal administration
T3 construct: also called PICK1 protein
T3 sequence (Q62083 whole entry): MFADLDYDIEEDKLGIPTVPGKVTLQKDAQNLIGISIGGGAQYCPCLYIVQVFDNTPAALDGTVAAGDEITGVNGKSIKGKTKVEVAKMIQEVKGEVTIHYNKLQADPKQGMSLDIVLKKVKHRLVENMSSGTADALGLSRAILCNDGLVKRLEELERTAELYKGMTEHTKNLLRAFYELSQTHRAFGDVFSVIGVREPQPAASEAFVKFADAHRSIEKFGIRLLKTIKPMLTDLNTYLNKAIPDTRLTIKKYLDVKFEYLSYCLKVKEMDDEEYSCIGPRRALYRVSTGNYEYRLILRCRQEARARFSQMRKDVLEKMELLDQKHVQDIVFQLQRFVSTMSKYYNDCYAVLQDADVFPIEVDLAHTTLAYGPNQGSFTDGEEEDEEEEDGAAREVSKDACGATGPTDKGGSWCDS

B1: TAMRA-YGRKKRRQRRR-PEG4-(HWLKV)2 (peptide)
peptide 1: YGRKKRRQRRR
peptide 2: HWLKV
modifications: not fully specified; N-terminus linked to the NPEG4 linker that joins the two copies; TAMRA on the N-terminus of the TAT sequence; conjugated to the NPEG4 linker
notes: also called TMR-TAT-P4-(C5)2; TMR-TAT11-P4-(C5)2
B1: no binding [1].

B2: TAT11-PEG4-(DATC5)2 (peptide)
peptide 1: YGRKKRRQRRR
peptide 2: NPEG4-HWLKV
modifications: not fully specified (C-terminus)
notes: Branched compound: two HWLKV peptides joined through their N-termini by a 4-unit NPEG linker that carries the CPP; also called TAT-P4-(C5)2
In the case of B2, the “Fold affinity change (against TAT-P4-(C5)2)” value (“Fold affinity change” for short) [2] is reported as 1 fold, the Ki [2] is reported as 4 nM and the “fold shift in affinity” value [3] is reported as 301 fold.

B3: N-terminally biotinylated TAT-P4-(C5)2 (peptide)
peptide 1: Biotin-YGRKKRRQRRR
peptide 2: HWLKV
modifications: not fully specified
notes: also called Biotin-TAT-P4-(C5)2
B3: no binding [4]; binds [5].

B4: MAP-P4-(C5)2 (peptide)
peptide 1: KLALKLALKALKAALKLA
peptide 2: HWLKV
modifications: not fully specified
notes: also called MAP-NPEG4-(HWLKV)2; MAP-peptide
In the case of B4, the “Fold affinity change” value [2] is reported as 0.8 fold and the Ki [2] is reported as 5.1 nM.

B5: PNT-P4-(C5)2 (peptide)
peptide 1: RQIKIWFQNRRMKWKK
peptide 2: HWLKV
modifications: not fully specified
notes: Branched compound as TAT-P4-(C5)2, with Penetratin as CPP; also called Pent-P4-(C5)2; PNT-peptide
With B5 the “Fold affinity change” value [2] was 1.7 fold.
